Experimental findings from the supplement of paper PMC12764529 are described below.

Data set [1] can be described thus: folding stability dG unfold from chymotrypsin proteolysis; higher = more stable. In short, it runs like this:
(§1)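 Mini-proteins designed to be under 80 residues and free of cysteine were carried in a PA-tagged cDNA display construct and digested with trypsin and with chymotrypsin. Each protease was applied at 11 threefold-diluted concentrations, alongside a no-protease condition, before sequencing. K50 came from Bayesian fitting of the sequencing counts, and unfolding free energy was obtained by comparing it with a sequence-predicted unfolded-state K50 and a shared folded-state K50, for each protease separately or for both together. Designs were retained only if their AlphaFold2 dimer inter-PAE exceeded 15.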

A short description of data set [2]: folding stability dG unfold from trypsin proteolysis; higher = more stable. In short, it runs like this:
as §1

Data set [3] can be described thus: folding stability dG unfold (combined trypsin and chymotrypsin); higher = more stable. In short, it runs like this:
as §1

± gives the half width of the 95% confidence interval.

In the case of “SAGGSAGGSAGMKITVTITTTTTVSVEPPESSAAVGPVVYRQTLTLNLSPEEAAALLKKSSAGGSAGGSAGG [r17_283_JUSTAS]”, the “folding stability dG unfold” value in data set [1] came out at 1.16 ± 0.14 kcal/mol; in data set [2], 1.17 ± 0.035 kcal/mol; in data set [3], 1.25 ± 0.11 kcal/mol.
Turning to “SAGGSAGGSAGMKPGEKVLLVKIKIKNENGEEETILVEMSLEELKKLLEEENIEVEILELSAGGSAGGSAGG [r17_313_TrROS_Hall]”, the “folding stability dG unfold” value in data set [1] stood at 2.27 ± 0.039 kcal/mol; in data set [2], 3.88 ± 0.17 kcal/mol; in data set [3], 3.03 ± 0.1 kcal/mol.
Turning to “SAGGSAGGSAGMKPGQKEEVKIPIMGMIPVDGRTFMIRFDITVKAPGAIKIELDIIPGFPSAGGSAGGSAGG [r11_551_TrROS]”, the “folding stability dG unfold” value in data set [1] is 4.73 ± 0.29 kcal/mol; in data set [2], 3.26 ± 0.16 kcal/mol; in data set [3], 4.23 ± 0.21 kcal/mol.
The corresponding values for “SAGGSAGGSAGMKTVLSTKTEPSPEDLTVTTVTLGDKVYTIIYDPKTGKPLKVIPAGEFKSAGGSAGGSAGG [r11_851_JUSTAS]” are 1.25 ± 0.093 kcal/mol, -0.0393 ± 0.1 kcal/mol and 0.857 ± 0.12 kcal/mol.
Taken in the same sequence, the figures for “SAGGSAGGSAGMKVTATSLNPASGTVTVKFSDGTTRTFSSVEALKAAIPEGVPIEIAPAVSAGGSAGGSAGG [r17_295_JUSTAS]” were 2.297 ± 0.012 kcal/mol, 2.46 ± 0.13 kcal/mol and 2.36 ± 0.051 kcal/mol.
Taken in the same sequence, the figures for “SAGGSAGGSAGMKYKATIPLPDGTTLTYESEDPEKAIEEITKETGVPKSKITITPIPELESAGGSAGGSAGG [r17_169_JUSTAS]” were 0.709 ± 0.096 kcal/mol, 0.33 ± 0.03 kcal/mol and 0.598 ± 0.097 kcal/mol.
On to “SAGGSAGGSAGMLETIELPDGKRVRYDPVTGEWFVELDPELEEEVRERLDPDLPVRFEEVSAGGSAGGSAGG [r11_374_JUSTAS]”, for which the “folding stability dG unfold” value came to 1.54 ± 0.063 kcal/mol in data set [1], 1.74 ± 0.081 kcal/mol in data set [2] and 1.62 ± 0.057 kcal/mol in data set [3].
Taken in the same sequence, the figures for “SAGGSAGGSAGMLRVRAVIKRPGGELEELTDVTEEEVLAYAREKGWEIEELKVISPSEKPSAGGSAGGSAGG [r11_283_JUSTAS]” were 1.91 ± 0.12 kcal/mol, 1.23 ± 0.054 kcal/mol and 1.64 ± 0.13 kcal/mol.
Taken in the same sequence, the figures for “SAGGSAGGSAGMLVYRTVVTTEVLETETTSFPTPEGPYVTTTTVTVKTTVTVEKLTPELLSAGGSAGGSAGG [r11_24_JUSTAS]” were 2.61 ± 0.041 kcal/mol, 2.67 ± 0.14 kcal/mol and 2.75 ± 0.2 kcal/mol.
Turning to “SAGGSAGGSAGMNPVVIETTETLPNGTVVRTTEIVDPSNPDKVVSTKTEISSVPSNAPLLSAGGSAGGSAGG [r17_299_JUSTAS]”, the “folding stability dG unfold” value is 0.113 ± 0.043 kcal/mol in data set [1], 0.342 ± 0.082 kcal/mol in data set [2] and 0.222 ± 0.11 kcal/mol in data set [3].
The corresponding values for “SAGGSAGGSAGMPIKTLKTTLVSVEKEPPGEGSYITTKSVTEFPDGSKSVTTTTVPASLLSAGGSAGGSAGG [r17_268_JUSTAS]” are -0.228 ± 0.27 kcal/mol, -0.653 ± 0.59 kcal/mol and -0.576 ± 0.44 kcal/mol.
Taken in the same sequence, the figures for “SAGGSAGGSAGMPLKVTVLSTSPLLESSELVTVKITPPDGSVVVIPSSVSLEEVEKLLLSSAGGSAGGSAGG [r17_353_JUSTAS]” were 0.05 ± 0.07 kcal/mol, 0.784 ± 0.024 kcal/mol and 0.558 ± 0.051 kcal/mol.
Taken in the same sequence, the figures for “SAGGSAGGSAGMPTLKIKVLVRNEETGEWQEVEIELPEGMTLEELLAALPPEQVERVEPVSAGGSAGGSAGG [r11_386_TrROS_Hall]” were 3.07 ± 0.059 kcal/mol, 2.42 ± 0.15 kcal/mol and 2.85 ± 0.073 kcal/mol.
For “SAGGSAGGSAGMPVITVDVYEDDNTYTITITLSDGTPVVVTVTSPDTPVEEAVAAVIAALSAGGSAGGSAGG [r11_313_JUSTAS]”, the “folding stability dG unfold” value in data set [1] was 2.77 ± 0.16 kcal/mol; in data set [2], 3.45 ± 0.15 kcal/mol; in data set [3], 3.16 ± 0.16 kcal/mol.
Taken in the same sequence, the figures for “SAGGSAGGSAGMRIRAEVVEISPPGAVIVLRYEIEFPLPDDEPVRLEFDAVLYIPVPPEASAGGSAGGSAGG [r11_689_TrMRF]” were 4.16 ± 0.098 kcal/mol, 2.63 ± 0.12 kcal/mol and 3.69 ± 0.13 kcal/mol.
With “SAGGSAGGSAGMRLVTFTVPGSAISVSTPGGATVVSVEKLPGDLVRVTVEIPEGAPPGLQSAGGSAGGSAGG [r17_48_JUSTAS]”, the “folding stability dG unfold” value was 1.76 ± 0.029 kcal/mol in data set [1], 1.12 ± 0.013 kcal/mol in data set [2] and 1.56 ± 0.046 kcal/mol in data set [3].
Take “SAGGSAGGSAGMSSVAPITTPDGKVAESVTVTEETLPNGEVVTKITTTLPDGTVVTTTLESAGGSAGGSAGG [r11_810_JUSTAS]”: the entries for the “folding stability dG unfold” value in data set [1], in data set [2] and in data set [3] were 0.997 ± 0.051 kcal/mol, 1.59 ± 0.066 kcal/mol and 1.3 ± 0.1 kcal/mol, respectively.
Take “SAGGSAGGSAGMSVRVIEGDPALAKKFIEEHPDEIVSVEVTPHPETGTYTYVFVFKGPPKSAGGSAGGSAGG [r17_79_TrMRF]”: the “folding stability dG unfold” value in data set [1] was determined as 2.44 ± 0.041 kcal/mol; in data set [2], 2.33 ± 0.086 kcal/mol; in data set [3], 2.39 ± 0.091 kcal/mol.
Taken in the same sequence, the figures for “SAGGSAGGSAGMTAKIVERRVLPGDGYLLLVEHPDGSRSAIVVPPELLENLDISDTVEFDSAGGSAGGSAGG [r11_943_TrMRF]” were 0.591 ± 0.026 kcal/mol, 0.576 ± 0.038 kcal/mol and 0.598 ± 0.064 kcal/mol.
With “SAGGSAGGSAGMTIKVYDPKTGEKILEIEIDPSLTPEQLKALADELRKKLPPGARIEIVPSAGGSAGGSAGG [r11_1081_TrROS_Hall]”, the “folding stability dG unfold” value in data set [1] came out at 3.72 ± 0.088 kcal/mol; in data set [2], 4.56 ± 0.2 kcal/mol; in data set [3], 4.38 ± 0.13 kcal/mol.
The corresponding values for “SAGGSAGGSAGMTVEDLEFDIPFESEEEAIEYLKKKLPKDYTIKPIGFEPENGKLKVKVTKKSAGGSAGGSA [r18_429_JUSTAS]” are 0.789 ± 0.15 kcal/mol, 0.485 ± 0.19 kcal/mol and 0.8 ± 0.3 kcal/mol.
Take “SAGGSAGGSAGMTVTETPVLVRYPEDGSVRPFTLTTSPEPGTLTLDLPPAEWPPLEITPPGSAGGSAGGSAG [r3_454_JUSTAS]”: the results for the “folding stability dG unfold” value in data set [1], in data set [2] and in data set [3] were -0.486 ± 0.33 kcal/mol, -0.0964 ± 0.12 kcal/mol and -0.324 ± 0.17 kcal/mol, respectively.
Taken in the same sequence, the figures for “SAGGSAGGSAGMVEVEVRKTENGNYVVTTTTVTTSPVTTPNPYTRTVTTVTTSTTVIPATSAGGSAGGSAGG [r11_403_JUSTAS]” were -0.101 ± 0.23 kcal/mol, -0.758 ± 0.3 kcal/mol and -0.187 ± 0.39 kcal/mol.
The corresponding values for “SAGGSAGGSAGMVEVYSEPDGTVIVKETVPGKVVITVLEKVPGGPGLNPVTTTVVPPGLLSAGGSAGGSAGG [r11_844_JUSTAS]” are 0.786 ± 0.058 kcal/mol, 1.4 ± 0.037 kcal/mol and 1.11 ± 0.043 kcal/mol.
Taken in the same sequence, the figures for “SAGGSAGGSAGMVKSLSELLAENPDLSIEEIKAKLEKEGYKVEVKKEGDTPVVYIKKGKKSAGGSAGGSAGG [r11_707_JUSTAS]” were 0.765 ± 0.14 kcal/mol, 1.43 ± 0.04 kcal/mol and 1.12 ± 0.16 kcal/mol.
As to “SAGGSAGGSAGMVLPVTKVYRDGDTVYLYFDGLGLIAEIRIDDDKITLPSVYRVHPDEDLSAGGSAGGSAGG [r17_30_TrMRF]”, the “folding stability dG unfold” value in data set [1] worked out at 0.438 ± 0.11 kcal/mol; in data set [2], 0.835 ± 0.038 kcal/mol; in data set [3], 0.691 ± 0.095 kcal/mol.
As to “SAGGSAGGSAGMVLVFDKKTGELYLYDKNGKLVAKFKVEGAEEVVVLVFDPDTNELKLVPSAGGSAGGSAGG [r17_413_TrROS_Hall]”, the “folding stability dG unfold” value in data set [1] came to 3.68 ± 0.037 kcal/mol; in data set [2] it was 2.49 ± 0.049 kcal/mol; in data set [3], 3.4 ± 0.065 kcal/mol.
The corresponding values for “SAGGSAGGSAGMVNTTLTTAPDGTRIVTTTFPENPDLVLRTTYAPDGSVLETELVPSSQLSAGGSAGGSAGG [r11_909_JUSTAS]” are 1.04 ± 0.023 kcal/mol, 1.98 ± 0.045 kcal/mol and 1.52 ± 0.026 kcal/mol.
The corresponding values for “SAGGSAGGSAGMVVETSKNPPTSDTVVTTLVPSPNSTTVTTTIVSPDPNTIKETTTTPTPSAGGSAGGSAGG [r11_100_JUSTAS]” are 1.23 ± 0.019 kcal/mol, 2.41 ± 0.064 kcal/mol and 1.8 ± 0.034 kcal/mol.
Taken in the same sequence, the figures for “SAGGSAGGSAGMVVKVKEHPITITKLPDGSWRLTHPASGKVILLPGVDEATAKAIAEELTSAGGSAGGSAGG [r11_1085_JUSTAS]” were 1.76 ± 0.027 kcal/mol, 1.26 ± 0.015 kcal/mol and 1.58 ± 0.054 kcal/mol.
On to “SAGGSAGGSAGMVVTINDPKKAKKIDENSVITIPDGKKYKVVKVEVDEKNGYWTLTIEPLSAGGSAGGSAGG [r11_316_JUSTAS]”, for which the figures for the “folding stability dG unfold” value in data set [1], in data set [2] and in data set [3] were 2.55 ± 0.051 kcal/mol, 1.09 ± 0.055 kcal/mol and 2.18 ± 0.15 kcal/mol, respectively.
Regarding “SAGGSAGGSAGMYRVEIEIEMSKEQLEALKKNKNLKPGQKIDLKVKIKIEPVKLDKNGKLSAGGSAGGSAGG [r17_194_TrROS_Hall]”, the “folding stability dG unfold” value stood at 2.43 ± 0.036 kcal/mol in data set [1], 1.57 ± 0.051 kcal/mol in data set [2] and 2.32 ± 0.13 kcal/mol in data set [3].
On to “SAGGSAGGSAGNIMILNKDGKIIAEIKIEEKYEIDKDGKIKKTKKIEIKIVPVPPGEKIKSAGGSAGGSAGG [r17_480_TrROS_Hall]”, for which the “folding stability dG unfold” value in data set [1] amounted to 1.94 ± 0.11 kcal/mol; in data set [2], 0.867 ± 0.056 kcal/mol; in data set [3], 1.25 ± 0.29 kcal/mol.
In the case of “SAGGSAGGSAGNKKAEEIKKILEEKGFEVVSVKVYKPKGNKPVVKIEVKAKNGKKFTILASAGGSAGGSAGG [r11_780_TrMRF]”, the “folding stability dG unfold” value was determined as 3.28 ± 0.039 kcal/mol in data set [1], 2.96 ± 0.2 kcal/mol in data set [2] and 3.22 ± 0.2 kcal/mol in data set [3].
Taken in the same sequence, the figures for “SAGGSAGGSAGNKYLIKVKKKNGNKSEELEIEVEDNPEIAEKIAEELKKKGNIVSVEIKKASAGGSAGGSAG [r3_310_TrMRF]” were 0.403 ± 0.21 kcal/mol, 0.761 ± 0.1 kcal/mol and 0.66 ± 0.23 kcal/mol.
Taken in the same sequence, the figures for “SAGGSAGGSAGNTIEIEINGKPIYVEFEPLPEGMVKVKIYFPDGKKEEITLPANDPIKIGSAGGSAGGSAGG [r11_525_TrROS]” were 1.6 ± 0.045 kcal/mol, 1.53 ± 0.068 kcal/mol and 1.58 ± 0.13 kcal/mol.
